Data on one molecule can be found in patent publication US20030144208A1 (ZymoGenetics, published 2003).

The experiment addresses T1, BSA V (Sigma Co.) (bovine, UniProt P02769 25-607).
T1 construct: Negative control of the ELISA; also called BSA control; bovine serum albumin
Kind of experiment: ELISA on plated matrix protein, anti-FITC/biotin, streptavidin/HRP, chemiluminescence on film. As for the experimental part: An ELISA (Enzyme-linked Immunosorbant Assay) was used to measure binding of zsig37 to various matrix proteins and complement C1q. The matrix proteins used were Bovine Collagen Type I (Becton Dickinson, Lincoln Park, N.J.) laminin, vitronectin, fibronectin, human collagen Types II, III, IV, V, VI (Chemicon International, Temecula, Calif.). BSA V (Sigma Co.) was used as a negative control. Just prior to use, the proteins were diluted in 2×PBS (Phosphate Buffered Saline, Sigma Co.) to 100 μg/ml and adjusted to pH 7.2 with 0.1 N NaOH. Each protein sample was quadruplicate plated (100 μl/well) into a 96 well plate. The plate was allowed to dry overnight in a laminar flow hood and washed 3 times with 400 μl of 5 mg/ml BSA in 1×PBS and blotted dry. Zsig37 was FITC labeled according to manufacturer's instruction (Pierce, Rockford, Ill.). Into each well was added 100 μl of 1.8 μg/ml zsig37-FITC in 5% BSA, PBS. The plates were incubated for 1.5 hours at room temperature then washed 3 time with 5% BSA, PBS. To each well was then added 100 μl of 1:400 mouse anti-FITC/Biotin (Sigma Co.). The plate was incubated 1.5 hours at room temperature and washed 3 times with 5% BSA, PBS. The plate was then incubated with 100 μl of 1:1000 streptavidin/HRP (Amersham, Piscataway, N.J.) for 1 hour and washed 3 times with 5% BSA, PBS. […]
(In an ELISA, binding on a coated surface is turned into a signal by an enzyme label.)

T1 sequence (P02769 25-607 limits assumed): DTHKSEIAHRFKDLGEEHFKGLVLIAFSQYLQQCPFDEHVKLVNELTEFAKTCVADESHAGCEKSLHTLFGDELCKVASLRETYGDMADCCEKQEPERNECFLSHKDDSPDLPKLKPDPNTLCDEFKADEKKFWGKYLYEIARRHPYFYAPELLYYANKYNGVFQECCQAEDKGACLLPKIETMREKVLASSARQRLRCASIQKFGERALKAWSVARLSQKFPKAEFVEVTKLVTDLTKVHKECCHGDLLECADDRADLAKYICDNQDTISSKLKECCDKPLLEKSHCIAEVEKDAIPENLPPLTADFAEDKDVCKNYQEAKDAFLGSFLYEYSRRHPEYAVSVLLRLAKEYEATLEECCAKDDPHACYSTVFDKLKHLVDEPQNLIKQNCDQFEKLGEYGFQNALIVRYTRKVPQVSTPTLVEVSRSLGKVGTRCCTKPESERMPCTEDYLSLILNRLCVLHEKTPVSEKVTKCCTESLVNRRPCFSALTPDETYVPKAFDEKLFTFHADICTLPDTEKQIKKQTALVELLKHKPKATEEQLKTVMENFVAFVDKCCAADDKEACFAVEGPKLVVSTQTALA

B1: zsig37-FITC (ligand)
chain: LVLSRVPHVQGEQQEWEGTEELPSPPDHAERAEEQHEKYRPSQDQGLPASRCLRCCDPGTSMYPATAVPQINITILKGEKGDRGDRGLQGKYGKTGSAGARGHTGPKGQKGSMGAPGERCKSHYAAFSVGRKKPMHSNHYYQTVIFDTEFVNLYDHFNMFTGKFYCYVPGLYFFSLNVHTWNQKETYLHIMKNEEEVVILFAQVGDRSIMQSQSLMLELREQDQVWVRLYKGERENAIFSEELDTYITFSGYLVKHATEP
modifications: FITC label (sites not given)
notes: 22-281 is used here; also called FITC labeled zsig37; FITC tagged Zsig37 protein
Consider B1, for which the binding result was “no binding (tested: 1.8 µg/ml zsig37-FITC)”.
